Target: mouse Rae1–Nup98^GLEBS complex (tags removed) (mouse) (UniProt Q8C570)
Experiment: SEC

MHV-68 ORF10 (wild type, full-length, no tag) (natural protein)
stoichiometry N: 1

Reference: publication PMC7604486
